Patent US20210284724A1 (I MAB BIOPHARMA US, published 2021)

T1: human CXCL13 (human, UniProt O43927 23-109)
T1 construct: also called huCXCL13; rhCXCL13
T1 sequence (looked up): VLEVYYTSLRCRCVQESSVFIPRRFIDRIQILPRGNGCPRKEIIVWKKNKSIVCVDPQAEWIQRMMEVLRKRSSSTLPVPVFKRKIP


How the values were obtained:
human CXCL13 [1] = molecular target: T1, human CXCL13; test: cell-based blocking ELISA, CXCL13 to CHO-K1-CXCR5
Description: This example tested the blocking of the anti-CXCL13 chimeric antibodies to CHO-K1-CXCR5 cells. Briefly, 5×10⁴ CHO-K1-CXCR5 cells were plated in 96-well plate with 100 μl of culture medium and incubated at 37° C. overnight. Cells were fixed with 100 μl of 2% PFA at RT for 1 hr after washing with PBS for 1 time. Samples were blocked with 1% BSA in PBST for 1 hr at RT. Antibodies were serial diluted from 50 μg/ml by 3-fold with 1% BSA/PBST and pre-incubated with equal volume of 0.3 μg/ml human CXCL13 for 30 min at RT. 100 μl of antibody-antigen complex was transferred into each cell wells for 30 min at RT. Samples were washed with 1×PBST for 3 times and 100 μl of 3 μg/ml of human Mab5261 antibody was added into each well to capture human CXCL13 and anti-human Fc-HRP was used to indirectly detect human CXCL13 when it bound to CHO-K1-CXCR5 cells.
Then read at 450 nm. […] Among all clones, 415A3D1, 64C10G1, 1H3A11, 414D10F5, 411A11E9, 21H12D9, 71F4A3, 329F2E1 show completely blocking activity and 408E3F3, 19H7E10, 339A6E7 appeared to be partial blockers.

human CXCL13 [2] = molecular target: T1, human CXCL13; test: SPR Biacore 8K, Fab over immobilised CXCL13
Description: HuCXCL13 binding affinity by Surface Plasmon Resonance. 411A11E9, 415A3D1, 64C10G1, 21H12D9, 329F2E1, 71F4A3 were selected to produce Fab and tested binding affinity. The binding of the antibodies to huCXCL13 was examined by Biacore 8K. 10 mM HEPES, 150 mM NaCl, 3 mM EDTA, 0.05% Tween-20, pH 7.4 served as running buffer and 10 mM glycine-HCl, pH2.0 served as regeneration buffer. CXCL13 protein was immobilized on Sensor Chip CM5 using amine coupling method (immobilization level ˜30RU). The serial concentrations of Fab (0-16 nM) were injected over immobilized CXCL13 at the flow rate of 30 μl/min. The dissociation phases were 600s.

human CXCL13 [3] = molecular target: T1, human CXCL13; test: SPR Biacore 8K, Fab over immobilised CXCL13; remark: listed apart in the source
Description: Among all humanized Fab samples, 71F4A3-VH2VL1, 71F4A3-VH1VL1 (Hz71F4), 71F4A3-VH1VL2, 71F4A3-VH3VL1, 411A11E9-VH1VL4, 411A11E9-VH3VL4, 411A11E9-VH2VL4, 411A11E9-VH3VL2, 411A11E9-VH1VL2, 21H12D9-VH1VL1, 21H12D9-VH2VL2, 21H12D9-VH3VL3, 21H12D9-VH1VL2, 64C10G1-VH1VL3, 64C10G1-VH1VL4, 64C10G1-VH1VL1, 64C10G1-VH1VL2 were selected to test affinity by Biacore 8K. 10 mM HEPES, 150 mM NaCl, 3 mM EDTA, 0.05% Tween-20, pH 7.4 served as running buffer and 10 mM glycine-HCl, pH2.0 served as regeneration buffer. CXCL13 protein were immobilized on Sensor Chip CM5 using amine coupling method (immobilization level ˜250RU). The serial concentrations of Fab (0-20 nM) were injected over immobilized CXCL13 at the flow rate of 30 μl/min. The dissociation phases were 600s.

human CXCL13 [4] = molecular target: T1, human CXCL13; test: SPR Biacore, off-rate ranking of Fabs
human CXCL13 [5] = molecular target: T1, human CXCL13; test: SPR Biacore T200
Description: To further optimization of 71F4-B, each Mutations in 71F4A3 useful for improving binding (Kon) were added into 71F4-B, the sequences were listed in Table 28. Antibodies according to these sequences were generated and affinity testing was performed by Biacore T200.

human CXCL13 [6] = molecular target: T1, human CXCL13; test: ELISA binding, Fab
human CXCL13 [7] = molecular target: T1, human CXCL13; test: cell-based blocking assay, CXCL13 to CXCR5 cells
Outline: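 CHO-K1 cells expressing CXCR5 were plated at 5×10⁴/well overnight at 37° C, fixed with 2% PFA and blocked with 1% BSA in PBST. Serially diluted humanized Fabs were mixed with an equal volume of human CXCL13 at 0.3 μg/ml and pre-incubated for 30 min at room temperature, and 100 μl of each mix was added to the cells for 30 min. After three PBST washes, bound CXCL13 was captured with 3 μg/ml of a human anti-CXCL13 antibody, detected with anti-human Fc-HRP and read at 450 nm. IC50 was derived from the titration.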

Kd (human CXCL13 [2]) [nM] | koff (human CXCL13 [2]) [s⁻¹] | kon (human CXCL13 [2]) [M⁻¹ s⁻¹] | Kd (human CXCL13 [3]) [nM] | koff (human CXCL13 [3]) [s⁻¹] | kon (human CXCL13 [3]) [M⁻¹ s⁻¹] | Kd (human CXCL13 [4]) [nM] | koff (human CXCL13 [4]) [s⁻¹] | kon (human CXCL13 [4]) [M⁻¹ s⁻¹] | Binder | further results
 |  |  |  |  |  |  |  |  | 408E3F3 chimeric human IgG1 antibody (antibody, V domains shown, Chimeric human IgG1) VH: HVTLRESGPGVLQPSKTLSLTCSFSGFSLSTSAMVVSWIRQSSGMSLEWLAAIDWEGDKYYNPSLESRLTVSRDISDTQVFLRITSVDVADTATYYCAVMSSADSHSVLDAWGQGVSVTVSS VL: DIKMTQSPSFLSASVGDRVTINCKASQNIHNYLNWYQQKFGEAPRLLIYNTNNLQTGIPSRFSGSGSGTDFTLTISSLQPEDVATYFCLQHSSSLTFGSGTKLEIN | IC50 (human CXCL13 [1]): 7.64 µg/mL
0.158 | 0.000326 | 2.06e+06 | 0.74 | 0.00156 | 2.11e+06 | 0.708 | 0.00287 | 4.05e+06 | 411A11E9 chimeric Fab (Fab, V domains shown, Fab) VH: EVQLVESGGGLVQPGGSLKLSCVVSGFTFSDYYMAWVRQTPTKGLEWVASINYDGGDTYYRDSVKGRFTVSRNNAKSSLFLQMDSLRSEDTATYYCKTEEDYDGSYVMDAWGQGASVIVSS VL: DIQMTQSPSFLSASVGDRVTISCKASQNINKELTWYQQKLGKAPKRLIYNTNILQTGIPSRFSGSGSNTDYTLTISSLQPEDFATYFCLQQSSLYTFGAGTKLELK | 
 |  |  |  |  |  |  |  |  | 71F4-B-SH (antibody, V domains shown) VH: EVQLVESGGGLVQPGGSLRLSCAASGIDFSRYWMSWVRQAPGKGLEWVAEINPESSTINYAPSLKDRFTISRDNAKNSLYLQMNSLRAEDTAVYYCARQDDYSHYTMDYWGQGTTVTVSS VL: DIQMTQSPSSLSASVGDRVTITCKVSQDVNTGVAWYQQKPGKAPKLLIYSASYRYTGVPSRFSGSGSGTDFTFTISSLQPEDIATYYCQQYYSTPLTFGGGTKLEIK | Kd (human CXCL13 [5]): 0.29 nM; koff (human CXCL13 [5]): 5.55e-05 s⁻¹; kon (human CXCL13 [5]): 192000 M⁻¹ s⁻¹
 |  |  |  |  |  |  |  |  | 71F4-B-SSH (antibody, V domains shown) VH: EVQLVESGGGLVQPGGSLRLSCAASGIDFSRYWMSWVRQAPGKGLEWVAEINPESSSINYAPSLKDRFTISRDNAKNSLYLQMNSLRAEDTAVYYCARQDDYSHYTMDYWGQGTTVTVSS VL: DIQMTQSPSSLSASVGDRVTITCKVSQDVNTGVAWYQQKPGKAPKLLIYSASYRYTGVPSRFSGSGSGTDFTFTISSLQPEDIATYYCQQYYSTPLTFGGGTKLEIK | Kd (human CXCL13 [5]): 0.377 nM; koff (human CXCL13 [5]): 9.46e-05 s⁻¹; kon (human CXCL13 [5]): 251000 M⁻¹ s⁻¹
 |  |  |  |  |  |  |  |  | 71F4-B-T (antibody, V domains shown, also called 71F4A3-B-T) VH: EVQLVESGGGLVQPGGSLRLSCAASGIDFSRYWMSWVRQAPGKGLEWVAEINPESSTINYAPSLKDRFTISRDNAKNSLYLQMNSLRAEDTAVYYCARQDDYETYTMDYWGQGTTVTVSS VL: DIQMTQSPSSLSASVGDRVTITCKVSQDVNTGVAWYQQKPGKAPKLLIYSASYRYTGVPSRFSGSGSGTDFTFTISSLQPEDIATYYCQQYYSTPLTFGGGTKLEIK | Kd (human CXCL13 [5]): 0.0456 nM; koff (human CXCL13 [5]): 1.17e-05 s⁻¹; kon (human CXCL13 [5]): 256000 M⁻¹ s⁻¹
0.341 | 0.000731 | 2.14e+06 | 1.42 | 0.00258 | 1.82e+06 | 1.18 | 0.00139 | 1.17e+06 | 21H12D9 chimeric Fab (Fab, V domains shown, Fab; also called 21VH12D9-Chimeric) VH: EVQLQQSGPVLVRPGASVKMSCKASGYTFTDYYMNWVKQSHGKSLEWIGVINPNNGGTTYKEKFKGKATLTVDKSSGTAYMELNSLTSEDSAVYYCARDDYDAGYWGQGTTLTVSS VL: DIVMTQFQKFMSTTVGDRVSITCKASQNVDTAVAWYQHKPGQSPKLLIYSASHRYTGVPDRFTGSGSGTDFTLTISNVQSEDLADYFCQQYTDFPLTFGAGTKLELK | 
1.2 | 0.00306 | 2.56e+06 |  |  |  |  |  |  | 415A3D1 chimeric Fab (Fab, V domains shown, Fab; label read as clone 415A3D1F4) VH: EVKLLESGGGLVQAGGSMRLSCGAFGFTVTDFYINWIRQPAGKAPEWLGFMRNKANGYTTEYNPSVKGRFTISRNNTQNMPYLQMNTLRTEDTAIYYCARSRYNADDYYVGVMDVWGQGASVTVSS VL: DIQMTQFPASLSASLGETVSIECLASEDIYNNLAWYQQKPGKSPQLLIYYTNSLQDGVPSRFSGTGSGTQYSLKINSLESEDAATYFCLQDSEYPWTFGGGTKLKLK | 
 |  |  | 2.98 | 0.00543 | 1.82e+06 | 2.98 | 0.00543 | 1.82e+06 | 64C10G1-VH1VL3 (Fab, V domains shown, Humanized Fab, human gamma 1 and kappa constant domains; also called 64C10G1-VH1VL3(Fab)) VH: EVQLVESGGGLVQPGGSLRLSCAASGFTFSSYAMSWVRQAPGKGLEWVATISDGGSDAYYPDNVKGRFTISRDNAKNSLYLQMNSLRAEDTAVYYCARDYYGSGYEDSPMDYWGQGTLVTVSS VL: DIQMTQSPSSLSASVGDRVTITCKASQDINKYIAWYQQKPGKAPKLLIHYTSTLQPGIPSRFSGSGSGTDFTFTISSLQPEDFATYYCLQYDNLYTFGGGTKLEIK | EC50 (human CXCL13 [6]): 1.07 nM; IC50 (human CXCL13 [7]): 7.69 nM
 |  |  | 1.92 | 0.00515 | 2.69e+06 | 1.92 | 0.00515 | 2.69e+06 | 64C10G1-VH1VL2 (Fab, V domains shown, Humanized Fab, human gamma 1 and kappa constant domains; also called 64C10G1-VH1VL2(Fab)) VH: EVQLVESGGGLVQPGGSLRLSCAASGFTFSSYAMSWVRQAPGKGLEWVATISDGGSDAYYPDNVKGRFTISRDNAKNSLYLQMNSLRAEDTAVYYCARDYYGSGYEDSPMDYWGQGTLVTVSS VL: DIQMTQSPSSLSASVGDRVTITCKASQDINKYIAWYQQKPGKAPKLLIHYTSTLQPGVPSRFSGSGSGTDFTFTISSLQPEDFATYYCLQYDNLYTFGGGTKLEIK | EC50 (human CXCL13 [6]): 1.23 nM; IC50 (human CXCL13 [7]): 7.02 nM
 |  |  | 5.89 | 0.0255 | 4.33e+06 | 5.89 | 0.0255 | 4.33e+06 | 64C10G1-VH1VL1 (Fab, V domains shown, Humanized Fab, human gamma 1 and kappa constant domains; also called 64C10G1-VH1VL1(Fab)) VH: EVQLVESGGGLVQPGGSLRLSCAASGFTFSSYAMSWVRQAPGKGLEWVATISDGGSDAYYPDNVKGRFTISRDNAKNSLYLQMNSLRAEDTAVYYCARDYYGSGYEDSPMDYWGQGTLVTVSS VL: DIQMTQSPSSLSASVGDRVTITCKASQDINKYIAWYQQKPGKAPKLLIYYTSTLQPGVPSRFSGSGSGTDFTFTISSLQPEDIATYYCLQYDNLYTFGGGTKLEIK | EC50 (human CXCL13 [6]): 1.29 nM; IC50 (human CXCL13 [7]): 7.79 nM
 |  |  |  |  |  |  |  |  | 19H7E10 chimeric human IgG1 antibody (antibody, V domains shown, Chimeric human IgG1) VH: EVQLQQSGPELVKPGASVKISCQASGYAFSDYYMNWVKQSHGKRLEWIGDINPNNDGTTYNQKFKDKATLTVDKSSSTAYMDLRSLTSEDSAVYYCARLSWSFFAMDYWGQGTSVTVSS VL: DIVMTQSHKFMSTSVGDRVSITCKASQDVSSGVAWYQQKPGQSPKVLIYSASHRHTGVPDRFTASGSGTDFTFTISSVQAEDLAVYYCQQYYNTPWTFGGGTKLEIK | IC50 (human CXCL13 [1]): 15.1 µg/mL
0.602 | 0.000581 | 966000 |  |  |  |  |  |  | 329F2E1 chimeric Fab (Fab, V domains shown, Fab) VH: EVKLLQSGGGLVQPGGSLKLSCAASGIDFSRYWMSWVRRAPGKGLEWIGEINPDSSTINYAPSLKDKFIISRDNAKNTLYLQMSKVRSEDTALYYCARQDDYDYYAMDYWGQGTSVTVSS VL: DIVMTQSHKFMSTSVGDRVSITCKASQDVSTGVAWYQQKPGQSPKLLIYSASYRYTGVPDRFTGSGSRTDFTFTISSVQTEDPAVYYCHQYYTIPLTFGAGTELELK | 
